For one series, the system named is AncSZ. Put plainly: phosphorylation enrichment, bacterial display (enrichment ratio); higher = better substrate or ligand; peptides without Tyr show the background.
In a further series the target is EPHB1 (UniProt P54762). The series is described as above.
The target in a further series is EPHB2 (UniProt P29323). The series is described as above.
Another series has as its target FGFR1 (UniProt P11362). The description is as above.
The target of another series is FGFR3 (UniProt P22607). The description is as above.
Chain of FGFR3 (P22607 whole entry, looked up): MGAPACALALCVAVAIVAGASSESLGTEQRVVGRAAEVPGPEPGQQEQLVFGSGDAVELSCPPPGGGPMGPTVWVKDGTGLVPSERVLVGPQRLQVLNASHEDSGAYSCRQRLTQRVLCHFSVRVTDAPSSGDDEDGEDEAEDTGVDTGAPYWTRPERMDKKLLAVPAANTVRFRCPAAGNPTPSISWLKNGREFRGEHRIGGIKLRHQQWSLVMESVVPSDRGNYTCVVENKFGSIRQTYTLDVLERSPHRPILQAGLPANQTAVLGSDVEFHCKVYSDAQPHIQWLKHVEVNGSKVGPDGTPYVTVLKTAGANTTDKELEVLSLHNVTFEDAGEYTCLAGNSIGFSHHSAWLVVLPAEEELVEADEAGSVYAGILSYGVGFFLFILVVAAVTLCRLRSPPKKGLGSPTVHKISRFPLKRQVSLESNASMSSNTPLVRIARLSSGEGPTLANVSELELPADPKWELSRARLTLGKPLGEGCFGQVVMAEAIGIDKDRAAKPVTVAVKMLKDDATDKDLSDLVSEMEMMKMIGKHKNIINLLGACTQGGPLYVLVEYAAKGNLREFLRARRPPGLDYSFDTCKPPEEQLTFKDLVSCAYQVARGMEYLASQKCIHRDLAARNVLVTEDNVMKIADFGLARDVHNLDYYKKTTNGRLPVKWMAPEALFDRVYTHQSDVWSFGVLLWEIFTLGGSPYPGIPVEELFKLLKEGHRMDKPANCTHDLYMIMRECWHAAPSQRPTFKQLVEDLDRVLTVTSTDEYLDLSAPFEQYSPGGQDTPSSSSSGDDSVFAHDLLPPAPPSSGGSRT
A further series relates to Fer (mouse). Described as above.
For the next series, the target named is Fes (UniProt P07332). The series is described as above.
Chain of Fes (P07332 whole entry, looked up): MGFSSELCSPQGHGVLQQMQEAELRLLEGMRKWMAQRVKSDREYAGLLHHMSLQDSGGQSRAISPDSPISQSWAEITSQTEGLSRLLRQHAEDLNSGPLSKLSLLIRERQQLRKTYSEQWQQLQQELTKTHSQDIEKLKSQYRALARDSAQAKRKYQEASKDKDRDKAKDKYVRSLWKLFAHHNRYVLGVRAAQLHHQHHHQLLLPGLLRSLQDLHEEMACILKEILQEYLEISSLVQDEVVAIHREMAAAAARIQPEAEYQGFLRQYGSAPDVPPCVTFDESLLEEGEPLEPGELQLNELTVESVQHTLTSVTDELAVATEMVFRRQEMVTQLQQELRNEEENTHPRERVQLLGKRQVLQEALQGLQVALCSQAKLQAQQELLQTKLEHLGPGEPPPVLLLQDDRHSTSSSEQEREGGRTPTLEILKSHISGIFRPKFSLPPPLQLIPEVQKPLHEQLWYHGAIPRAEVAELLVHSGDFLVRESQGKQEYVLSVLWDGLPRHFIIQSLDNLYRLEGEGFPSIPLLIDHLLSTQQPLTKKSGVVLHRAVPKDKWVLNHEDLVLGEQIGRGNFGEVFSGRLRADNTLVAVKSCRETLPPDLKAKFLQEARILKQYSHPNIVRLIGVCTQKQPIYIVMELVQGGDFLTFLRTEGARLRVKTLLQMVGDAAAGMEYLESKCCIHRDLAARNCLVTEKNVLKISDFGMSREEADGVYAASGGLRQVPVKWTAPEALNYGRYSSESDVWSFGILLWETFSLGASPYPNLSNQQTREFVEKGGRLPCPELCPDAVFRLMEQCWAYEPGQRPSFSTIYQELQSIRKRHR
The next series addresses Fyn (UniProt P06241). Described as above.
A further series has as its target Hck (UniProt P08631). Described as above.
The target in another series is Jak2 (UniProt O60674). Described as above.
The next series concerns the target MERTK (UniProt Q12866). The series is described as above.
For another series, the system named is c-Abl (mouse). Described as above.
In the next series the test system is c-Src. The description is as above.
Another series addresses Grb2 SH2 (UniProt P62993). Put plainly: SH2 binding enrichment of the phosphorylated peptide, bacterial display (enrichment ratio); higher = better substrate or ligand; peptides without Tyr show the background.
In the next series the target is SHP2-C SH2. The description is as above.
For a further series, the target named is c-Src SH2. Described as above.
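Throughout, for SH2 binding enrichment of the phosphorylated peptide, bacterial display: peptide library displayed on the E. coli surface as eCPX fusions, selected cells deep-sequenced, score is each peptide's frequency after selection divided by its frequency in the input.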
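Throughout, for phosphorylation enrichment, bacterial display: 11-residue human phosphosite peptides and single-mutation variants displayed on the E. coli surface, counted by deep sequencing, each peptide's frequency after selection divided by its frequency in the unselected input library; frequency after pTyr selection over input frequency; kinase dosed for 20-30% of maximal phosphorylation in three min.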

Chain of Fyn (P06241 whole entry, looked up): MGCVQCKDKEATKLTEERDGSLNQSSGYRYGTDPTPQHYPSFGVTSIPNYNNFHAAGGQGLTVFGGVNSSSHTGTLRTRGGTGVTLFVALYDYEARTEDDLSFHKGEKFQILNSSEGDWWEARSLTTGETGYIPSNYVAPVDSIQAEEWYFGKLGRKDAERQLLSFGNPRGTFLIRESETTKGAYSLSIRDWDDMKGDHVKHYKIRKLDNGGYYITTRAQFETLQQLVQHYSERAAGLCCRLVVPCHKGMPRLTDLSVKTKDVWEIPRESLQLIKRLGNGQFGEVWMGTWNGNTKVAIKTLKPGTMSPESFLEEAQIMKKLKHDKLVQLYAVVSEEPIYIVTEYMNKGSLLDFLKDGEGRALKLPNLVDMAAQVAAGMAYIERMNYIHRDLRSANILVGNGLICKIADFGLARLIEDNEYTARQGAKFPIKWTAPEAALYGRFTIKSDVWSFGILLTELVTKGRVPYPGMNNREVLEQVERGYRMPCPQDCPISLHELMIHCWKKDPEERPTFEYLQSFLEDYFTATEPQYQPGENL
Chain of FGFR1 (P11362 whole entry, looked up): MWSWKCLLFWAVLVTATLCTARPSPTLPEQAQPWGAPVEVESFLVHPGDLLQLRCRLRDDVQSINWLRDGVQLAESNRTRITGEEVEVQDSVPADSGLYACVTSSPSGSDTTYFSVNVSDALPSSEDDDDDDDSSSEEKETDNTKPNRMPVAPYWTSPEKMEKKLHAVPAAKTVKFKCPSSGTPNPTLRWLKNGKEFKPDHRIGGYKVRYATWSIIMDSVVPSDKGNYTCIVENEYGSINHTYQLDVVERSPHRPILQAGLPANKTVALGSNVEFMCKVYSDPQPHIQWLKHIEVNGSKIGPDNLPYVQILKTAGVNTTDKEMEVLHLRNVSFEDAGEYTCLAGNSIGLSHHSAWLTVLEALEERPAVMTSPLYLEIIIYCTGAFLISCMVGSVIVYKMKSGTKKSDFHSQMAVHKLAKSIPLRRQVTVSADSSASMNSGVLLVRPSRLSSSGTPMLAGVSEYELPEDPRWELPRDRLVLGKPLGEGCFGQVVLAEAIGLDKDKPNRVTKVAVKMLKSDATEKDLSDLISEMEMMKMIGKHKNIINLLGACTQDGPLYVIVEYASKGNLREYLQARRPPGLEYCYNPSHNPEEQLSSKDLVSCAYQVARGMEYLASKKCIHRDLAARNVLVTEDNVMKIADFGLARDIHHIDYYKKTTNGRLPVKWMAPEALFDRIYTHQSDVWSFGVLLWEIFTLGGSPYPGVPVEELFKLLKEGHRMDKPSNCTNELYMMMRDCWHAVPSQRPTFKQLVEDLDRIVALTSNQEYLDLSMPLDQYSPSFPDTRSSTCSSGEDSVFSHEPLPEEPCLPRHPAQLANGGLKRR
Chain of EPHB2 (P29323 whole entry, looked up): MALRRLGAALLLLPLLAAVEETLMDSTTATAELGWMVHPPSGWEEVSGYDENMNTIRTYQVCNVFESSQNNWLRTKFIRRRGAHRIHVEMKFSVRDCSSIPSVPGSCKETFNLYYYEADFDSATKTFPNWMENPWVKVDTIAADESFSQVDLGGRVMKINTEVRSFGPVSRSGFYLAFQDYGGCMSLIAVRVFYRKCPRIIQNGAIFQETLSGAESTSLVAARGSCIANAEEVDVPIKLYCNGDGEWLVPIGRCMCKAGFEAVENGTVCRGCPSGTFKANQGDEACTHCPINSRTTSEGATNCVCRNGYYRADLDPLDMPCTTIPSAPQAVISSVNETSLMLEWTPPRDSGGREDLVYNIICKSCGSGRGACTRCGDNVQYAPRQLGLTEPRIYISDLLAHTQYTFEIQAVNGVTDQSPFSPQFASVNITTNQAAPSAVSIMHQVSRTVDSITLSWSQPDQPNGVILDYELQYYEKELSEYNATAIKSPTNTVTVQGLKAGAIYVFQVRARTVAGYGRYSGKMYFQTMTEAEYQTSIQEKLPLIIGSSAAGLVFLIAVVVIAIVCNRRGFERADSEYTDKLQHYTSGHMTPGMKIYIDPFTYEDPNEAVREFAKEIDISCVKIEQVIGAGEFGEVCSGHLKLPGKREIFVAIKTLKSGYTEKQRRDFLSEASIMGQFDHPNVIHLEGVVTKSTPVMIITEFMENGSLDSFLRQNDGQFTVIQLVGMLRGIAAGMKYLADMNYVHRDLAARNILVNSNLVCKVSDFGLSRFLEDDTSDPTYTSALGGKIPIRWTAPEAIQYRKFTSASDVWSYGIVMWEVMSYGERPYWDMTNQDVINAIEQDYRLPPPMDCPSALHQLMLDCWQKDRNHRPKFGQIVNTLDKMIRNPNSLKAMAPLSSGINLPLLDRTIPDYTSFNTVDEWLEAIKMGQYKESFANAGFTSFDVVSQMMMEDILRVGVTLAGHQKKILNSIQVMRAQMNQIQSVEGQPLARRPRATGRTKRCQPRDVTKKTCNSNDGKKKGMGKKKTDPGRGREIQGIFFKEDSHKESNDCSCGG
Chain of EPHB1 (P54762 whole entry, looked up): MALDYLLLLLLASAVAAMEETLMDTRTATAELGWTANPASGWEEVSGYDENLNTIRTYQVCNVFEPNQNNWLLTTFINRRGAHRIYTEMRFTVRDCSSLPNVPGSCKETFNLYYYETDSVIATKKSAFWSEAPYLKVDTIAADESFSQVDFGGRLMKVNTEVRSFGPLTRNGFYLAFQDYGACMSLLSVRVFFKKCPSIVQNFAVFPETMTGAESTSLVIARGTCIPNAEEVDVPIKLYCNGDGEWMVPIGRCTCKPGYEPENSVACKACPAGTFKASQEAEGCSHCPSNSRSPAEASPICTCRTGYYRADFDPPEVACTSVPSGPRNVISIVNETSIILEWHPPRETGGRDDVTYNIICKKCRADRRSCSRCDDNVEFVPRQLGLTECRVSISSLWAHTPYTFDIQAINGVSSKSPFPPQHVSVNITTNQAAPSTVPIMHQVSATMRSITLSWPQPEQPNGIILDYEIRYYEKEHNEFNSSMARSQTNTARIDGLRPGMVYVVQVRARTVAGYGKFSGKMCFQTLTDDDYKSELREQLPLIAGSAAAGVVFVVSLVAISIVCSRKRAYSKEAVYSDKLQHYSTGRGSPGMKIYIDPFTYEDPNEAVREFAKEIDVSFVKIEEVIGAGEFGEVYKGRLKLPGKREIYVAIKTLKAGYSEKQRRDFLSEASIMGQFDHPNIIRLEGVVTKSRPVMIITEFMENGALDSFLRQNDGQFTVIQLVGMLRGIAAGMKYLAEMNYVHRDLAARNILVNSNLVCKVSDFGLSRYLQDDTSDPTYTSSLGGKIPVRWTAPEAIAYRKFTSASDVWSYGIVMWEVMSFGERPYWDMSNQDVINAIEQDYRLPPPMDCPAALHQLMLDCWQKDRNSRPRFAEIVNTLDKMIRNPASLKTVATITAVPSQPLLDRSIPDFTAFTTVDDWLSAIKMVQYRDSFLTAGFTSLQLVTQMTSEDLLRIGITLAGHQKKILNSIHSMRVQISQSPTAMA

NTGNFYDLFGG [PTPN11_Y63_D61N_YF]: the phosphorylation enrichment in the series with AncSZ turned out to be 0.844; in the series with EPHB1, 0.436; with EPHB2, 0.548; with FGFR1 it was 0.537; in the series with FGFR3, 0.641; in the series on Fer (mouse), 3.08. Further, the phosphorylation enrichment was 0.955 in the series with Fes; 6.58 in the series with Fyn; 4.7 in the series with Hck; 0.796 with Jak2; 7.84 in the series with MERTK; 0.766 in the series with c-Abl (mouse). Besides, in the series with c-Src, the phosphorylation enrichment is 4.88. Besides, the SH2 binding enrichment in the series with Grb2 SH2 turned out to be 1.19; with SHP2-C SH2, 0.833; in the series with c-Src SH2, 0.887.

On to NTPNTYLRVNV [ADD2_Y440], for which the phosphorylation enrichment in the series with AncSZ is 0.891; with EPHB1, 0.412; with EPHB2 it was 0.47; in the series with FGFR1, 0.44; with FGFR3, 0.598; in the series on Fer (mouse), 0.38. In addition, the phosphorylation enrichment is 0.98 with Fes; 0.433 with Fyn; 0.428 with Hck; 0.908 in the series with Jak2; 0.347 in the series with MERTK; 0.587 in the series on c-Abl (mouse). Also, the phosphorylation enrichment in the series on c-Src came out at 0.436. In addition, the values for the SH2 binding enrichment in the series with Grb2 SH2, with SHP2-C SH2 and in the series with c-Src SH2 were 0.927, 1.29 and 0.485, respectively.

On to NTSKMYIPHTD [EXPH5_Y782_D777N], for which the phosphorylation enrichment in the series with AncSZ was 0.663; with EPHB1, 0.35; in the series with EPHB2 it was 0.423; with FGFR1, 0.415; in the series with FGFR3 it was 0.523; with Fer (mouse), 0.469. Besides, the phosphorylation enrichment with Fes is 0.609; in the series with Fyn, 0.45; with Hck it was 0.462; with Jak2 it was 0.562; with MERTK, 0.462; in the series with c-Abl (mouse) it was 0.532. In addition, the phosphorylation enrichment with c-Src was found to be 0.474. Moreover, the figures for the SH2 binding enrichment with Grb2 SH2, with SHP2-C SH2 and with c-Src SH2 were 0.897, 0.68 and 0.386, respectively.

Take NTTIHYNFMCN [TP53_Y234_C229N_YF]: the phosphorylation enrichment was determined as 1.14 with AncSZ; 0.698 with EPHB1; 0.618 in the series with EPHB2; 0.542 in the series with FGFR1; 0.828 in the series with FGFR3; 0.557 in the series on Fer (mouse). The phosphorylation enrichment with Fes was determined as 1.24; in the series with Fyn, 0.495; in the series with Hck, 0.511; with Jak2, 1.02; with MERTK it was 0.427; with c-Abl (mouse), 0.782. Further, the phosphorylation enrichment with c-Src came out at 0.46. Further, the SH2 binding enrichment with Grb2 SH2 turned out to be 0.848; with SHP2-C SH2, 0.701; with c-Src SH2, 0.598.

Take NVDGKYSFLKV [GRM3_Y478_G475D_YF]: the phosphorylation enrichment in the series with AncSZ turned out to be 0.624; with EPHB1, 0.394; with EPHB2, 0.356; with FGFR1, 0.426; in the series with FGFR3, 0.505; in the series on Fer (mouse), 0.48. Also, the phosphorylation enrichment in the series with Fes was found to be 0.824; in the series with Fyn, 0.383; with Hck it was 0.431; with Jak2 it was 0.719; in the series with MERTK, 0.508; with c-Abl (mouse), 0.534. In addition, the phosphorylation enrichment in the series with c-Src is 0.439. Also, the SH2 binding enrichment with Grb2 SH2 came out at 1.06; with SHP2-C SH2, 0.944; in the series with c-Src SH2 it was 0.826.

For the sequence NVPILYTASQA [CTNNA1_Y222], the phosphorylation enrichment came to 0.553 in the series on AncSZ; 0.432 with EPHB1; 0.449 with EPHB2; 0.464 with FGFR1; 0.501 in the series with FGFR3; 0.472 in the series with Fer (mouse). The phosphorylation enrichment is 0.597 in the series with Fes; 0.421 with Fyn; 0.444 with Hck; 0.688 with Jak2; 0.687 with MERTK; 0.576 in the series with c-Abl (mouse). In the series with c-Src, the phosphorylation enrichment was 0.418. The SH2 binding enrichment with Grb2 SH2 was 0.762; with SHP2-C SH2, 0.628; with c-Src SH2 it was 0.435.

Turning to PAEPRYRARQR [KCNJ11_Y26], the phosphorylation enrichment in the series with AncSZ was found to be 1.02; in the series with EPHB1, 0.635; with EPHB2 it was 0.722; in the series with FGFR1, 0.576; with FGFR3 it was 0.599; in the series on Fer (mouse), 0.673. The phosphorylation enrichment with Fes is 0.718; with Fyn, 0.746; with Hck it was 0.878; with Jak2 it was 1; with MERTK, 0.929; with c-Abl (mouse), 0.737. Further, the phosphorylation enrichment in the series on c-Src was found to be 0.958. The figures for the SH2 binding enrichment with Grb2 SH2, with SHP2-C SH2 and with c-Src SH2 were 0.675, 0.788 and 0.474, respectively.

Consider PDDPNYSLVDD [PSTPIP2_Y323], for which the phosphorylation enrichment in the series on AncSZ was 2.13; with EPHB1 it was 1.09; in the series with EPHB2, 1.49; with FGFR1, 1.06; in the series with FGFR3, 1.31; in the series with Fer (mouse), 1.07. Further, the phosphorylation enrichment with Fes was determined as 1.81; in the series with Fyn it was 1.15; with Hck it was 1.11; in the series with Jak2 it was 1.4; in the series with MERTK, 0.662; in the series with c-Abl (mouse), 0.8. For the same sequence, the phosphorylation enrichment in the series on c-Src came out at 0.603. Moreover, the SH2 binding enrichment was 1.11 in the series with Grb2 SH2, 0.822 with SHP2-C SH2 and 1.42 with c-Src SH2.

Source of the values: the supplement of paper PMC10065799, “High-throughput profiling of sequence recognition by tyrosine kinases and SH2 domains using bacterial peptide display” (eLife, 2023).
